Results on three molecules are retold here after patent publication US20120058906A1 (published 2012).

For experiment [1], the target named is T1, Recombinant Human DLL4 (R&D Systems Cat#1506-D4/CF) (human, UniProt Q9NR61 27-524).
T1 construct: Bought reagent; also called delta-like protein 4
Kind of experiment: ECL (MSD multi-spot), antigen spotted on plate; Fab 176.3 nM; blank spot 346.

The target in experiment [2] is T2, rHuman HGF R/c-MET/Fc Chimera, CF (R&D Systems Cat#358-MT/CF) (human, UniProt P08581 25-932).
T2 construct: Bought reagent; also called HGF R/Fc; hepatocyte growth factor receptor; Fc part of the bought chimera not given
Kind of experiment: ECL (MSD multi-spot), antigen spotted on plate; Fab 352.5 nM; blank spot 494.

Experiment [3] has as its target T3, rHuman IGF-1 sR (IGF-1 sR), CF (R&D Systems Cat#391-GR) (human, UniProt P08069 31-932).
T3 construct: Bought soluble receptor; also called insulin-like growth factor-1 soluble receptor; IGF-R1
The experiment is described as above.

The target of experiment [4] is T4, rHuman EGF R/Fc Chimera, CF (R&D Systems Cat#344-ER) (human, UniProt P00533 25-645).
T4 construct: Bought reagent; also called epidermal growth factor receptor; Fc part of the bought chimera not given
Described as above.

The target in experiment [5] is T5, rHuman Erythropoietin R/Fc Chimera, CF (R&D Systems Cat#963-ER) (human, UniProt P19235 25-250).
T5 construct: Bought reagent; also called EPO R/Fc; Epo R; Fc part of the bought chimera not given
T5 sequence: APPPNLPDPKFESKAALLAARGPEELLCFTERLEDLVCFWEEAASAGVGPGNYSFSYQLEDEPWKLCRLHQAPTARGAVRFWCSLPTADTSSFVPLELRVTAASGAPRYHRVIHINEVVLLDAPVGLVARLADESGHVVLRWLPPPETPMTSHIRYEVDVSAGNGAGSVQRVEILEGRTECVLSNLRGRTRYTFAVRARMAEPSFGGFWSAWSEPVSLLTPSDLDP
Described as above.

Experiment [6] has as its target T6, rHuman CD44/Fc Chimera, CF (R&D Systems Cat#3660-CD) (human, UniProt P16070 21-220).
T6 construct: Bought reagent; Fc part of the bought chimera not given
Described as above.

Experiment [7] has as its target T7, rHuman Notch-1/Fc Chimera, CF (R&D Systems Cat#3647-TK) (human, UniProt P46531 19-526).
T7 construct: Bought reagent; Fc part of the bought chimera not given
The experiment is described as above.

Experiment [8] has as its target T1, Recombinant Human DLL4 (R&D Systems …). The description is as above.
Experiment [9] deals with T8, rHuman P-Cadherin/Fc Chimera, CF (R&D Systems Cat#861-PC) (human, UniProt P22223 108-654).
T8 construct: Bought reagent; also called CDH3; Fc part of the bought chimera not given
The description is as above.

The target in experiment [10] is T9, rHuman ErbB2/Fc Chimera, CF (R&D Systems Cat#1129-ER) (human, UniProt P04626 23-652).
T9 construct: Bought reagent; also called HER2/neu; human epidermal growth factor 2 receptor; Fc part of the bought chimera not given
Described as above.

Experiment [11] addresses T10, rHuman ErbB2/Fc Chimera, CF (R&D Systems Cat#1129-ER) (human, UniProt P04626 23-652).
T10 construct: Bought Fc chimera; also called HER2/neu; Fc part of the bought chimera not given
Kind of experiment: MSD ECL titration, Fab 0.1 nM, blank 201.

For experiment [12], the target named is T11, Recombinant Human DLL4 (R&D Systems Cat#1506-D4/CF) (human, UniProt Q9NR61 27-524).
T11 construct: Bought recombinant protein; also called rHuman DLL4; delta-like protein 4
Briefly: MSD ECL titration, Fab 0.1 nM, blank 201.

Experiment [13] has as its target T12, rHuman Notch-1/Fc Chimera, CF (R&D Systems Cat#3647-TK) (human, UniProt P46531 19-526).
T12 construct: Bought Fc chimera; Fc part of the bought chimera not given
Kind of experiment: MSD ECL titration, Fab 0.1 nM, blank 201.

The target of experiment [14] is T13, rHuman Erythropoietin R/Fc Chimera, CF (R&D Systems Cat#963-ER) (human, UniProt P19235 25-250).
T13 construct: Bought Fc chimera; also called EPO R/Fc; Epo R; Fc part of the bought chimera not given
T13 sequence: T5 sequence
Briefly: ECL (MSD Multi-Spot) binding assay, antigen spotted on plate; Fab 3.8 nM; blank spot 198.

In experiment [15] the target is T14, rHuman Notch-1/Fc Chimera, CF (R&D Systems Cat#3647-TK) (human, UniProt P46531 19-526).
T14 construct: Bought Fc chimera; Fc part of the bought chimera not given
The description is as above.

Experiment [16] deals with T15, rHuman CD44/Fc Chimera, CF (R&D Systems Cat#3660-CD) (human, UniProt P16070 21-220).
T15 construct: Bought Fc chimera; Fc part of the bought chimera not given
Described as above.

Experiment [17] deals with T16, rHuman P-Cadherin/Fc Chimera, CF (R&D Systems Cat#861-PC) (human, UniProt P22223 108-654).
T16 construct: Bought Fc chimera; also called CDH3; Fc part of the bought chimera not given
The description is as above.

In experiment [18] the target is T17, Recombinant Human DLL4 (R&D Systems Cat#1506-D4/CF) (human, UniProt Q9NR61 27-524).
T17 construct: Bought recombinant protein; also called delta-like protein 4; rHuman DLL4
The description is as above.
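Note: blank spot per well as comparator with Hit at signal to blank ratio of 4 or more.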

B1: Fab VH1-46_IGHD3-10*01_IGHJ4*01 & B3_IGKJ1*01 (Fab, V domains shown)
VH: QVQLVQSGAEVKKPGASVKVSCKASGYTFTSYYMHWVRQAPGQGLEWMGIINPSGGSTSYAQKFQGRVTMTRDTSTSTVYMELSSLRSEDTAVYYCAREYYYGSGSYYNDYFDYWGQGTLVTVSS
VL: not shown
notes: also called IGHV1-46*01
For the molecule B1, the ECL signal came to 460 in experiment [1]; 606 in [2]; 528 in experiment [3]; 769 in experiment [4]; 4100 in [5]; 556 in [6]. Also, the ECL signal in [7] turned out to be 715; in experiment [8] it was 660; in experiment [9], 649; in [10] it was 514.

B2: Fab VH1-46_IGHD6-6*01_IGHJ1*01 & L6_IGKJ1*01 (Fab, V domains shown)
VH: QVQLVQSGAEVKKPGASVKVSCKASGYTFTSYYMHWVRQAPGQGLEWMGIINPSGGSTSYAQKFQGRVTMTRDTSTSTVYMELSSLRSEDTAVYYCAREEYSSSSAEYFQHWGQGTLVTVSS
VL: not shown
notes: Expressed in E. coli as Fab: heavy chain with CH1 plus Flag and His tags from Plasmid A, kappa light chain constant region from Plasmid C; also called Fab No. 1
With B2, the ECL signal in [11] was 306; in [12], 317; in experiment [13] it was 378.

B3: Fab VH6-1_IGHD3-3*01_IGHJ4*01 & V4-3_IGLJ4*01 (Fab, V domains shown)
VH: QVQLQQSGPGLVKPSQTLSLTCAISGDSVSSNSAAWNWIRQSPSRGLEWLGRTYYRSKWYNDYAVSVKSRITINPDTSKNQFSLQLNSVTPEDTAVYYCAREYYDFWSGYYTDYFDYWGQGTLVTVSS
VL: QPVLTQPTSLSASPGASARLTCTLRSGINLGSYRIFWYQQKPESPPRYLLSYYSDSSKHQGSGVPSRFSGSKDASSNAGILVISGLQSEDEADYYCMIWHSSASFVFGGGTQLIIL
notes: Tested as a Fab made in E. coli; also called IGHV6-1*01
As for B3, the ECL signal in experiment [14] was found to be 407; in experiment [15], 383; in [16], 419; in experiment [17] it was 281; in [18], 462.
